From patent US20120040894A1 (REGENTS OF THE UNIVERSITY OF CALIFONIRA, published 2012)
Numbered stars: 1 amine (or outer) side, 2 acyl side, 3 side chain; on linkers, the order of the positions; unused ones are H or OH. Square brackets hold non-standard residues; d marks the D form. Ends that are not written are not given here. Cys(S-tBut) = S-t-butylthio-L-cysteine, CC(C)(C)SSC[C@H](N[*:1])C(=O)[*:2]; Cys(tBut) = S-t-butyl-L-cysteine, CC(C)(C)SC[C@H](N[*:1])C(=O)[*:2]

T1: ferroportin tagged at the C-terminus with green fluorescent protein (ECR293/Fpn-GFP cells)
T1 sequence (Q9NP59 whole entry, species assumed, looked up): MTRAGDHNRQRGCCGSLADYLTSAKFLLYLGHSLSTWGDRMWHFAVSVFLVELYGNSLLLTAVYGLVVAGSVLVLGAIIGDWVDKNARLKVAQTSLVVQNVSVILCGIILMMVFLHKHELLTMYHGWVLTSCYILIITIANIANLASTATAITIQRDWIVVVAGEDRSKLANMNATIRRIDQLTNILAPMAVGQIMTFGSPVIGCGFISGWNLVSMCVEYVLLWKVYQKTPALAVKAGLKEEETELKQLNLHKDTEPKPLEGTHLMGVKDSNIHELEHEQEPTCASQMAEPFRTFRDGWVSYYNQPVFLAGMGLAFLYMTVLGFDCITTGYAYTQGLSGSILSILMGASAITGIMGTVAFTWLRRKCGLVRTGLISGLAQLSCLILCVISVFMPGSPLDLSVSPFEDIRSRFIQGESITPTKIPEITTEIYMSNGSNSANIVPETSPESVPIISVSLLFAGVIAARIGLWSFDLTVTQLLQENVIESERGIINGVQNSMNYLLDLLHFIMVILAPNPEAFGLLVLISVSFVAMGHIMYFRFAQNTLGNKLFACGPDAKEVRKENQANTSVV

B1: Hep25 (peptide)
peptide: DTHFPICIFCCGCCHRSKCGMCCKT
modifications: disulfide (positions not given here); also: 4 disulfide bonds, pairing not given here
B2: Hep9C7-tBut (peptide)
peptide: DTHAPI[Cys(tBut)]IF-NH2
modifications: N-terminus assumed
SMILES: CC[C@H](C)[C@H](NC(=O)[C@H](CSC(C)(C)C)NC(=O)[C@@H](NC(=O)[C@@H]1CCCN1C(=O)[C@H](C)NC(=O)[C@H](Cc1c[nH]cn1)NC(=O)[C@@H](NC(=O)[C@@H](N)CC(=O)O)[C@@H](C)O)[C@@H](C)CC)C(=O)N[C@@H](Cc1ccccc1)C(N)=O
B3: Pr28 (peptide)
peptide: FICIPFHTD
modifications: not fully specified; N-terminal R5 = 2(Palmitoyl)-Dap(PEG11)-, Dap = diaminopropionic acid; retroinverted (D-amino acids); C-terminal amide
B4: Cyc-3 (peptide)
peptide: HFPICIF
modifications: not fully specified; C-terminal F carries R1 = -CONH2-CH2-CH2-S; disulfide cyclized (double underlining lost)
B5: riHep7ΔDT (peptide)
peptide: [dF][dI][dC][dI][dP][dF][dH]-NH2
modifications: N-terminus assumed
SMILES: CC[C@@H](C)[C@@H](NC(=O)[C@H](N)Cc1ccccc1)C(=O)N[C@H](CS)C(=O)N[C@@H](C(=O)N1CCC[C@@H]1C(=O)N[C@H](Cc1ccccc1)C(=O)N[C@H](Cc1c[nH]cn1)C(N)=O)[C@H](C)CC
B6: Pr24 (peptide)
peptide: FICIPFHTD
modifications: N-terminal R3 = Ursodeoxycholate-(PEG11)-; retroinverted (D-amino acids); C-terminal amide
B7: Pr23 (peptide)
peptide: FICIPFHTD
modifications: N-terminal R2 = Chenodeoxycholate-(PEG11)-; retroinverted (D-amino acids); C-terminal amide
B8: Pr27 (peptide)
peptide: FICIPFHTD
modifications: N-terminal R4 = Palmitoyl-(PEG11)-; retroinverted (D-amino acids); C-terminal amide
B9: Hep9C7-SStBut (peptide)
peptide: DTHAPI[Cys(S-tBut)]IF-NH2
modifications: N-terminus assumed
SMILES: CC[C@H](C)[C@H](NC(=O)[C@H](CSSC(C)(C)C)NC(=O)[C@@H](NC(=O)[C@@H]1CCCN1C(=O)[C@H](C)NC(=O)[C@H](Cc1c[nH]cn1)NC(=O)[C@@H](NC(=O)[C@@H](N)CC(=O)O)[C@@H](C)O)[C@@H](C)CC)C(=O)N[C@@H](Cc1ccccc1)C(N)=O

Target: T1, ferroportin tagged at the C-terminus …
Assay: cell-based or functional assay

With B1 the “EC50; loss of fluorescence of Fpn-GFP cells” value was 5 to 15 nM.

Target: T1, ferroportin tagged at the C-terminus …
Assay: cell-based or functional assay
Remark: another data set of the same source

DTHFPIAIF-NH2 [Hep9-C7A] and B2 cannot be ordered by “EC50 (nM); loss of fluorescence of Fpn-GFP cells, flow cytometry” value (“EC50 (nM); loss” for short): > 10000 nM for the first, > 10000 nM for the second.

Compared with DTHFPIC-NH2 [Hep7 (Hep1-7)], DTHFPIAIFC-NH2 [Hep10 (Hep1-10 C7A)] is lower in “EC50 (nM); loss” value: > 10000 nM for the first, 100 nM for the second.

Compared with HFPICI-NH2 [Hep6 (Hep3-8)], B3 is 3-fold higher in “EC50 (nM); loss” value: 1000 nM for the first, 3000 nM for the second.

First: B4
Second: B5
The “EC50 (nM); loss” value of the first is higher: > 10000 nM for the first, 150 nM for the second.

B6 and FICIPFHTD (retroinverted: all D-amino acids; C-terminal amide) [Pr12] are within 1.5-fold of each other in “EC50 (nM); loss” value: 1000 nM for the first, 900 nM for the second.

First: B7
Second: DTHFPISIF-NH2 [Hep9-C7S]
The “EC50 (nM); loss” value of the first is lower: 100 nM for the first, > 10000 nM for the second.

Compared with B8, HFPICIF-NH2 [Hep7ΔDT (Hep3-9)] is 35-fold higher in “EC50 (nM); loss” value: 20 nM for the first, 700 nM for the second.

HFPIC-NH2 [Hep5 (Hep3-7)] and FPIC-NH2 [Hep4 (Hep4-7)] cannot be ordered by “EC50 (nM); loss” value: > 10000 nM for the first, > 10000 nM for the second.

First: DTHAPICIF-NH2 [Hep9F4A]
Second: B1
The “EC50 (nM); loss” value of the first is higher: > 3000 nM for the first, 10 nM for the second.

Compared with B9, DTHFPICI-NH2 [Hep8 (Hep1-8)] is 2.9-fold higher in “EC50 (nM); loss” value: 700 nM for the first, 2000 nM for the second.
